Experiments:
[1] = target: angiotensin II type 1 receptor A244S (human) (UniProt P30556)
[2] = target: angiotensin II type 1 receptor I103T (human) (UniProt P30556)
[3] = target: angiotensin II type 1 receptor, wild type (human) (UniProt P30556)
[4] = target: angiotensin II type 1 receptor I103T-A244S (human) (UniProt P30556)

βarrestin2-RlucII, sequence (P32121 whole entry): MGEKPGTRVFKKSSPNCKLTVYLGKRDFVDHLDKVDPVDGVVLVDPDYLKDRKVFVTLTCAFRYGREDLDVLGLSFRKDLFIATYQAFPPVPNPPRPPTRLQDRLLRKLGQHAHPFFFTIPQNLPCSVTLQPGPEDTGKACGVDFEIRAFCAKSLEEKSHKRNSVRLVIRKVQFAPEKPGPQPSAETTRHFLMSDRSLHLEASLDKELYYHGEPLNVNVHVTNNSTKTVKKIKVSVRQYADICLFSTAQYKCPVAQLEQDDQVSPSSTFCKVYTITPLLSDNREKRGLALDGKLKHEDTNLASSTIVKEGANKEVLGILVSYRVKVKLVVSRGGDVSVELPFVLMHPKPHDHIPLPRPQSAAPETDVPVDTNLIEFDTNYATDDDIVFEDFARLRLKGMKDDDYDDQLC

Substance: βarrestin2-RlucII (from UniProt P32121 1-409) (natural protein)
- AngII-stimulated β-arrestin 2 recruitment to the membrane (BRET2 between βarrestin2-RlucII and rGFP-CaaX), Emax (% WT) [1]: 106 % WT
- AngII-stimulated β-arrestin 2 recruitment to the membrane (BRET2 between βarrestin2-RlucII and rGFP-CaaX), pEC50 of AngII [1]: 8.68
- AngII-stimulated β-arrestin 2 recruitment to the membrane (BRET2 between βarrestin2-RlucII and rGFP-CaaX), Emax (% WT) [2]: 97 % WT
- AngII-stimulated β-arrestin 2 recruitment to the membrane (BRET2 between βarrestin2-RlucII and rGFP-CaaX), pEC50 of AngII [2]: 8.54
- AngII-stimulated β-arrestin 2 recruitment to the membrane (BRET2 between βarrestin2-RlucII and rGFP-CaaX), pEC50 of AngII [3]: 8.49
- AngII-stimulated β-arrestin 2 recruitment to the membrane (BRET2 between βarrestin2-RlucII and rGFP-CaaX), Emax (% WT) [4]: 50 % WT
- AngII-stimulated β-arrestin 2 recruitment to the membrane (BRET2 between βarrestin2-RlucII and rGFP-CaaX), pEC50 of AngII [4]: 8.5

Reference: article PMC7786401
